Experimental data from article doi:10.1101/2023.01.27.525918 (bioRxiv, 2023).
Each block holds one binder with its values, some of them ahead of it.

Assays:
[1] = molecular target: ZUP1;RPA complex WT (RPA70/RPA32/RPA14) (Homo sapiens;Homo sapiens, UniProt Q96AP4;P27694;P15927;P35244 1-578;1-616;1-270;1-121, |); assay: EMSA
[2] = molecular target: T1, Human RPA complex (RPA70, RPA32, RPA14), recombinant full length (human, UniProt P27694;P15927;P35244); assay: pull-down
[3] = molecular target: RPA70 as the subunit of the purified recombinant RPA complex (human, UniProt P27694 1-616); assay: cross-linking
[4] = molecular target: T1, Human RPA complex (RPA70, RPA32, …); assay: SEC

T1 sequence (P27694 whole entry, chain 1 of 3): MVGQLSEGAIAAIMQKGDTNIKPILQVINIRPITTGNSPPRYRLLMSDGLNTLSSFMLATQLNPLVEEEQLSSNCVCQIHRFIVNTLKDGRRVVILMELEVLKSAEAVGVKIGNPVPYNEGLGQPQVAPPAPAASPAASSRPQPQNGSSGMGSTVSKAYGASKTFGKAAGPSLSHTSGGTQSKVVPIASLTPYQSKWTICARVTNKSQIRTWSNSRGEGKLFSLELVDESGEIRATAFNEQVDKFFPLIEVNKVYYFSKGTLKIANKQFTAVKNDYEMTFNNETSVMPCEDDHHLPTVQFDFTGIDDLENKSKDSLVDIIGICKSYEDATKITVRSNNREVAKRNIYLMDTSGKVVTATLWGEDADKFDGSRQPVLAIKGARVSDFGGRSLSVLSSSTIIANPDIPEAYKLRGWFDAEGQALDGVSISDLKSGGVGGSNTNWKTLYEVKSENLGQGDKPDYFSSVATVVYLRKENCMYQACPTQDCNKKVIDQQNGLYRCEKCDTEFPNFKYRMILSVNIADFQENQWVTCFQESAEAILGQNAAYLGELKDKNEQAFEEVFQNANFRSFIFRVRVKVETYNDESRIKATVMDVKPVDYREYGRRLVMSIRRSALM
T1 sequence (P15927 whole entry, chain 2 of 3): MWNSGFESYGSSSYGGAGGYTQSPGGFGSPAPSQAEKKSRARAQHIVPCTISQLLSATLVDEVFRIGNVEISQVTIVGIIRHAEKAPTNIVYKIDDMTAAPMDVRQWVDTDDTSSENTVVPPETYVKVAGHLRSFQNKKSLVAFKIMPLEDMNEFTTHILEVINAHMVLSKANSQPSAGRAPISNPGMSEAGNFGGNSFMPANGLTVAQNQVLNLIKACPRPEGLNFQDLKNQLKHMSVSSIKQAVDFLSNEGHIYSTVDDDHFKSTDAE
T1 sequence (P35244 whole entry, chain 3 of 3): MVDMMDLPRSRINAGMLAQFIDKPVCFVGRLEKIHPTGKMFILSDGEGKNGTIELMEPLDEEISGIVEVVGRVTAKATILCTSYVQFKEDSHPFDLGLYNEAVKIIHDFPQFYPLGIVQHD
Sequence of ZUP1;RPA complex WT (RPA70/RPA32/RPA14) (P27694 whole entry, chain 2 of 3): as the sequence (P27694 whole entry, chain 1 of 3) above
Sequence of ZUP1;RPA complex WT (RPA70/RPA32/RPA14) (P15927 whole entry, chain 3 of 3): as the sequence (P15927 whole entry, chain 2 of 3) above
Sequence of ZUP1;RPA complex WT (RPA70/RPA32/RPA14) (P35244 whole entry, chain 4 of 3): as the sequence (P35244 whole entry, chain 3 of 3) above
Sequence of UniProt P27694 (P27694 whole entry, one chain of several): as the sequence (P27694 whole entry, chain 1 of 3) above

B1: Gap-26 (mixed)
DNA 1: CTATGGCGAGGCGATTATCAACCCATTTAGTCGTAATAGTGAAGAGTCACGACAACATCG
DNA 2: TAATCGCCTCGCCATAG
DNA 3: CGATGTTGTCGTGACTC
binding result [1]: binds

binding result [2]: binds
B2: GST-ZUP1 α-2/3-C78 (aa 272-578) (domain or fragment)
chain: SGGYKQQQLRNMEIEVNRGRMPPSEFHRRKADMMESLALGFDDGKTKTSGIIEALHRYYQNAATDVRRVWLSSVVDHFHSSLGDKGWGCGYRNFQMLLSSLLQNDAYNDCLKGMLIPCIPKIQSMIEDAWKEGFDPQGASQLNNRLQGTKAWIGACEVYILLTSLRVKCHIVDFHKSTGPLGTHPRLFEWILNYYSSEGEGSPKVVCTSKPPIYLQHQGHSRTVIGIEEKKNRTLCLLILDPGCPSREMQKLLKQDIEASSLKQLRKSMGNLKHKQYQILAVEGALSLEEKLARRQASQVFTAEKIP

binding result [3]: binds | binding result [4]: binds
B3: ZUP1 C360A (catalytically inactive mutant of full length ZUP1) (enzyme)
chain: MLSCNICGETVTSEPDMKAHLIVHMESEIICPFCKLSGVNYDEMCFHIETAHFEQNTLERNFERINTVQYGTSDNKKDNTLQCGMEVNSSILSGCASNHPKNSAQNLTKDSTLKHEGFYSENLTESRKFLKSREKQSSLTEIKGSVYETTYSPPECPFCGKIEEHSEDMETHVKTKHANLLDIPLEDCDQPLYDCPMCGLICTNYHILQEHVDLHLEENSFQQGMDRVQCSGDLQLAHQLQQEEDRKRRSEESRQEIEEFQKLQRQYGLDNSGGYKQQQLRNMEIEVNRGRMPPSEFHRRKADMMESLALGFDDGKTKTSGIIEALHRYYQNAATDVRRVWLSSVVDHFHSSLGDKGWGAGYRNFQMLLSSLLQNDAYNDCLKGMLIPCIPKIQSMIEDAWKEGFDPQGASQLNNRLQGTKAWIGACEVYILLTSLRVKCHIVDFHKSTGPLGTHPRLFEWILNYYSSEGEGSPKVVCTSKPPIYLQHQGHSRTVIGIEEKKNRTLCLLILDPGCPSREMQKLLKQDIEASSLKQLRKSMGNLKHKQYQILAVEGALSLEEKLARRQASQVFTAEKIP
